Experimental data from patent publication WO2020239014A1 (dated 2020).
Substitutions are numbered along the chain they refer to. In names and notes the source's numbering stands. Several values for one entry are separate records, joined by “and”; a condition that tells them apart may be missing. Equal values may be shown once. One block for each binder: values may come before it.

How the values were obtained:
[1] = target: T1, CGRPα (4013281-1000, Bachem) (human, UniProt P06881 83-119, not fully specified); assay: ELISA, coated CGRPα titrated (0-0.2 μg/mL), antibody fixed at 1 μg/mL
T1 construct: mature; ELISA: coated Bachem CGRPα; also called α-CGRP; human CGRP
T1 peptide (looked up): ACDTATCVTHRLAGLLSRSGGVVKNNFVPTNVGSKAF

[2] = target: T1, CGRPα (4013281-1000, Bachem); assay: BLI (Octet RED 96), α-CGRP on streptavidin biosensors, antibody in solution, 1:1 model
[3] = target: T1, CGRPα (4013281-1000, Bachem); assay: cell-based or functional assay

EC50 [1]: 0.0135 µg/mL and 0.036 µg/mL | Kd [2]: < 1 pM | koff [2]: < 1e-07 s⁻¹ | kon [2]: 122000 M⁻¹ s⁻¹
B1: CGRPM5-BA51.23-IgG2 (antibody, V domains shown)
VH: QVQLVQSGAEVKKPGASVKVSCKASGYTFTRYTMHWIRQAPGQGLEWMGYIYPSSGYTIYNQKFQGRVTMTRDTSTSTVYMELSSLRSEDTAVYYCATEGHYAGNGNYEGYWGQGTTVTVSS
VL: DIVMTQSPSSLSASVGDRVTITCRASSSISSNYLHWYQQKPGKAPKLLIYRTSNLASGVPSRFSGSGSGTDFTLTISSLQPEDFATYYCQQGSSIPFTFGQGTKLEIK
notes: Humanized BA51, IgG2; also called CGRP-BA51.23; CGRP-BA51.23-IgG2

EC50, cell-based cAMP activation assay (HTRF) with CGRP [3]: 32 µg/mL | EC50 [1]: 0.00844 µg/mL
B2: CGRPM5-BA51.23-IgG2-N105D (antibody, V domains shown)
VH: B1 VH with N105D
VL: B1 VL
notes: IgG2; also called optimized BA51.23 antibody (N105D)

EC50, cell-based cAMP activation assay (HTRF) with CGRP [3]: 44.9 µg/mL | EC50 [1]: 0.0106 µg/mL
B3: CGRPM5-BA51.23-IgG2-N105L (antibody, V domains shown)
VH: B1 VH with N105L
VL: B1 VL
notes: IgG2; also called optimized BA51.23 antibody (N105L)
